Our source for the Km and kcat/Km values is patent US8097440B1, “Engineered microorganisms capable of producing target compounds under anaerobic conditions” (Gevo, Inc., priority 2008, dated 2012).

Broadly, the Km is the substrate concentration at which the rate is half of its maximum. As usually defined, the kcat/Km is the second-order rate constant that governs catalysis at low substrate concentration.

Holding throughout (assay type): biochemical, E. coli
Substrate in series [1]: CC(C)C=O
As to the kind of experiment: Alcohol dehydrogenase kinetic assay, Ec_YqhD. To be noted: other: NADPH as cofactor; conversion to isobutanol. On the procedure:
E. coli strain GEVO1745 was transformed by electroporation with one of plasmids pGV1705-A, pGV1748-A, pGV1749-A, or pGV1778-A. 50 mL of TB medium (23.1 g/L KH2PO4, 125.4 g/L K2HPO4, 12 g/L Bacto-tryptone, 24 g/L yeast extract, 4 ml/L glycerol) were inoculated to an initial OD600 of 0.2 using a 3 mL overnight LB culture of a single colony. The 50 mL culture was allowed to grow for 3-4 hrs at 250 rpm and 37° C. Protein expression was induced at an OD600 of 2-2.5 by the addition of IPTG to a final concentration of 1 mM. After the addition of IPTG, protein expression was allowed to continue for 20-24 hours at 225 rpm and 25° C.
Alcohol dehydrogenase (ADH) activity was assayed kinetically by monitoring the decrease in NAD(P)H concentration by measuring the absorbance at 340 nm. A reaction buffer was prepared containing 0.1 M potassium phosphate, 0.4 mM NAD(P)H, 10 mM isobutyraldehyde, 1 mM DTT, and 1 mM PMSF. Cell pellets were resuspended in 0.1 M potassium phosphate buffer containing 1 mM DTT and 1 mM PMSF at one fifth of the culture volume, i.e. 10 mL resuspension buffer for cell pellet from a 50 mL culture. The resuspended cells were lysed by sonication for 1 min with a 50% duty cycle. The reaction was initiated by the addition of 0.5 mL of the reaction buffer to 0.5 mL of clarified lysate in a cuvette. […]

Substrate in series [2]: NC(=O)C1=CN([C@@H]2O[C@H](COP(=O)(O)OP(=O)(O)OC[C@H]3O[C@@H](n4cnc5c(N)ncnc54)[C@H](O)[C@@H]3O)[C@@H](O)[C@H]2O)C=CC1
The series can be described thus: KARI cuvette assay, purified Ec_IlvC^S78D-his6. How it is done: (§1) KARI cuvette assay: KARI activity was assayed kinetically by monitoring the decrease in NAD(P)H concentration by measuring the absorbance at 340 nm. A reaction buffer was prepared containing 250 mM potassium phosphate pH 7, 1 mM DTT and 10 mM MgCl2. Cell pellets were resuspended (0.25 g wet weight/mL buffer) in 250 mM potassium phosphate (KPi) buffer containing 1 mM DTT and 10 mM MgCl2. The resuspended cells were lysed by sonication for 1 min with a 50% duty cycle and pelleted at 11000×g and 4° C. for 15 min. A reaction mixture consisting of 910 μl reaction buffer, 50 μl acetolactate, and 20 μl lysate was prepared in a cuvette. The reaction was initiated by addition of 20 μL of 10 mM NAD(P)H. A substrate free control was conducted using reaction buffer without the addition of acetolactate.
(§2) Purification of KARI: Cell pellets used for purification were resuspended in purification buffer A (20 mM Tris, 20 mM imidazol, 100 mM NaCl, 10 mM MgCl2, pH 7.4). KARI was purified by IMAC (Immobilized metal affinity chromatography) over a 1 ml Histrap High Performance (histrap HP) column pre-charged with Nickel (GE Healthcare) using an Akta FPLC system (GE Healthcare). The column was equilibrated with four column volumes (cv) of buffer A. After injecting the crude extract, the column was washed with buffer A for 2 cv, followed by a wash step with a mixture of 10% elution buffer B (20 mM Tris, 300 mM imidazol, 100 mM NaCl, 10 mM MgCl2, pH 7.4) for 5 cv. KARI variants were eluted at 40% buffer B and stored at 4° C.
(§3) Five individual site saturation libraries were generated and electro-competent E. coli BL21(DE3) cells were transformed with the desalted ligation mixtures. 88 clones of each library were screened for NAD(P)H depletion at 340 nm in microplates. Clones with an improved NADH/NADPH consumption ratio while maintaining or increasing their NADH activity were chosen for a rescreen. Variants that passed the rescreen were sequenced, expressed in shake flasks, purified, and characterized. […]

Substrate in series [3]: NC(=O)C1=CN([C@@H]2O[C@H](COP(=O)(O)OP(=O)(O)OC[C@H]3O[C@@H](n4cnc5c(N)ncnc54)[C@H](OP(=O)(O)O)[C@@H]3O)[C@@H](O)[C@H]2O)C=CC1
The series can be described thus: KARI cuvette assay, purified Ec_IlvC^S78D-his6. To be noted: other: purified. On the procedure: as §1, §2, §3

B1: E. coli alcohol dehydrogenase Ec_YqhD, SEQ ID NO: 69 (Escherichia coli K-12) (protein)
chain: MNNFNLHTPTRILFGKGAIAGLREQIPHDARVLITYGGGSVKKTGVLDQVLDALKGMDVLEFGGIEPNPAYETLMNAVKLVREQKVTFLLAVGGGSVLDGTKFIAAAANYPENIDPWHILQTGGKEIKSAIPMGCVLTLPATGSESNAGAVISRKTTGDKQAFHSAHVQPVFAVLDPVYTYTLPPRQVANGVVDAFVHTVEQYVTKPVDAKIQDRFAEGILLTLIEDGPKALKEPENYDVRANVMWAATQALNGLIGAGVPQDWATHMLGHELTAMHGLDHAQTLAIVLPALWNEKRDTKRAKLLQYAERVWNITEGSDDERIDAAIAATRNFFEQLGVPTHLSDYGLDGSSIPALLKKLEEHGMTQLGENHDITLDVSRRIYEAAR
On to B1, for which the Km in series [1] was found to be 250 µM.

B2: E. coli KARI Ec_IlvC variant Ec_IlvC^S78D-his6 (S78D), SEQ ID NO: 17 (Escherichia coli K-12; S78D) (protein)
chain: MANYFNTLNLRQQLAQLGKCRFMGRDEFADGASYLQGKKVVIVGCGAQGLNQGLNMRDSGLDISYALRKEAIAEKRADWRKATENGFKVGTYEELIPQADLVINLTPDKQHSDVVRTVQPLMKDGAALGYSHGFNIVEVGEQIRKDITVVMVAPKCPGTEVREEYKRGFGVPTLIAVHPENDPKGEGMAIAKAWAAATGGHRAGVLESSFVAEVKSDLMGEQTILCGMLQAGSLLCFDKLVEEGTDPAYAEKLIQFGWETITEALKQGGITLMMDRLSNPAKLRAYALSEQLKEIMAPLFQKHMDDIISGEFSSGMMADWANDDKKLLTWREETGKTAFETAPQYEGKIGEQEYFDKGVLMIAMVKAGVELAFETMVDSGIIEESAYYESLHELPLIANTIARKRLYEMNVVISDTAEYGNYLFSYACVPLLKPFMAELQPGDLGKAIPEGAVDNGQLRDVNEAIRSHAIEQVGKKLRGYMTDMKRIAVAGLEHHHHHH
As to B2, the kcat/Km in series [2] (other: purified, acetolactate as substrate) is 27,600 M^−1 * s^−1; in series [2] (with NADH), 3770 M⁻¹ s⁻¹. The Km in series [3] amounted to 130 µM.
